Results taken from the nanobody polyreactivity screen of Harvey et al. (2022).

Test: yeast display, Sf9 membrane polyspecificity reagent, FACS + sequencing; frameworks hold sequencing errors
How it was run: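 Galactose-induced (36–48 hours) yeast carrying a synthetic nanobody display library were exposed to 10% biotinylated, detergent-solubilized Sf9 membrane reagent at 4 °C for 1 hour. FACS followed streptavidin microbead enrichment, using low and high (top ~1%) gates for expression (anti-HA) and reagent binding (streptavidin). Colony PCR, MiSeq 2 × 250 sequencing and CDR-length filtering followed. Labels for polyreactivity reflect the gate of origin.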

Sequence | polyreactivity (PSR sort gate)
QVQLVESGGGLVQAGGSLRLSCAASGRIFDIYAMGWYRQAPGKERELVAAITNSGVSTYYADSVKGRFTISRDNAKNTVYLQMNSLKPEDTAVYYCNAGDFERAVVVFIQHGGYYWGQGTQVTVSS | low polyreactivity
QVQLVESGGGLVQAGGSLRLSCAASGSTFRYNAMGWYRQAPGKERELVAGISYRGGTTYYADSVKGRFTISRDNAKNTVYLQMNSLKPEDTAVYYCAAAASSPGGWFYYWGQGTQVTVSS | high polyreactivity
QVQLVESGRGLVQAGGSLRLSCASSGRIFTYTAMGWYRQAPWKDSELVARITSGGNTNYADSVKGRFTISRDNAKNTVYLPMNSLKPEDTAVYYSATGLYWFTNRYGCWGLGTQVTVSS | low polyreactivity
QVQLVESGGGLVQAGGSLRLSCAPSGSIFRGYAMGWYRQAPGKERELVAAISSGGSTYYADSVKGRFTISRDNAKNTVDLQMNSLKPEDTAVYYCATSTYAYRRISYYSWGQCTQVTVSS | high polyreactivity
QVQLVESGGGLGQAGGSLRLSCAASGITYDGYAMGWYRQAPGKERELVAAITYSGGRTYYADSVKGRFTISRDNAKNTVYLQMNSLKPEDTAVYYCAVVSRRLYEYDYWGQGTQVTVSS | high polyreactivity
QGQLVESGGGLVQAGGSLRLSCAASGRTFVRNAMGWSSQGPGKEREWVAAISSIGDSTYYAYSLKGRFTISRDNAKNTVYLQLNTLKPEDTAVYYCAAECVTSYYNYYHWGQGTQVTVSS | low polyreactivity
QVHLVESGGGLVQAGGSLRLSCAASGRPFYIYAMGWYRPAPGKERELVAAITWSGGTTYYADSVKGRFTISRDTANNTVYLQMNSQKPQDTAVYYCNASFRRGFDYWGQGTQVTVSS | low polyreactivity
QVQLVESGGGLVQAGGSLRLSCAASGSIFRSNTMGWYRQAPGKERELVAGISYSGGSTYADSVKGRFTISRDNAKNTVYLQMNSLKTEDTAVYYCARRVYSYVVLYFSYYYWGQGTQVTVSS | low polyreactivity
QVQLVESGGGLVQAGGSLRLSCAASGSIFYWYAMGWYRQAPGKERELVAAITWSGGSTYYADSVKGRFTISRDNAKNTVYLQMNSLKPEDTAVYYCNKVPYYGAYSSYDYWGQGTQVTVSS | high polyreactivity
QVQRVECGGGLVLAGGSLRLSCAASGRILVFYAMGWYRQARGKVRELVATITDTGRTNYADSVKGRCTISRDNAKKTDSLQMTSQKPEDTAVYYCAKQRDYGFPWATYDYWGQGTQGTVSS | low polyreactivity
QVQLVESGGGLVQAGGSLRLSCCASGFTVSSYARAWYRQAPGKERELVAAITYRGGSTYYADSVKGRFTISRDNAKNTVFLLMNSLKPEDTAVYYCAARWGYRMYWGQGTQVTVSS | high polyreactivity
QVQLVESGGGLVQAGGSLRLSCAASGRTFYANDMGWYRQAPGKERELVAAISSSVTSTHYADSVKGRFTISRDNAKNTVYLQMNSLKPEDTAVYYCNKDPIREVPPPGPSEMDYWGQGTQVTVSS | low polyreactivity
QVQLVESGGGLVQAGGSLRLSCAASGLTFTSNVMGWYRQAPGKERELVAAISSGGSTYYADSVKGRFTISRDNAKNTVYLQMNSLKPEDTAVYYCNTKLWGQYDYWGQGTQVTVSS | low polyreactivity
QVQLVESGGGLVQAGGSLRLSCAASGSTFVIYDMGWYRQAPGKERELVAAISYSGGSTYYADSVKGRFTISRDNAKNTVYLQMNSLKPEDTAVYYCAAEGRSDWGGDDYYWGQGTQVTVSS | low polyreactivity
QVQLVESGGGLVQAGGSLRLSCAASGFIFYWYAMGWYRQAHGKERELVARITQSVGRTYYADSVKGRFTISRDNAKNTVYLQMNSLKPEDTAVHYCATDYGSYWSGAAYERYDYWGQGTQVTVSS | low polyreactivity
QVQLVESGGGLVQAGGSLRLSCAASGLTFLIYAMGWYIQAPRKERELVASITGRGGSTYYADSVKGRFTISRDNAKNTVYLQMNCLKPEDTAVYYCAASLRYYGLEMDYWGQGTQVTVSS | high polyreactivity

Sequence | polyreactivity (PSR sort gate)
QVQHVESGGGLVQAGGSLRLSCAAYYAMGWYRQAPGKERELVAAISSTGRTNYADSVKGRFTISRDNAKNTVYLQMNSLKPEDTAVYYCNAGDPSGMDYWGQGTQVTVSS | low polyreactivity
QVQLVESGGGLVQAGGSLRLSCAASGSIFSSNAMGWYRQAPGKERELVASIRRGGSTYYADSVKGRFTISRDNAMNTVYLQMNSLKPEDTAVYDCARRYVPWYATYDHWGQGTQVTVSS | high polyreactivity
QVQLVESGGGLVQAGGSLRLICAASGNTFNVYAMVWYRHAPGKERELVAAITLSGGSTYYADSVKGRFTISRDNAKNTVYLQMNSLKPEDTAVYYCNAEDDGTDYDYWGQGTQVTVSS | low polyreactivity
QVQLVESGGGLVQAGGSLRLSCAASGSTFWSYTMGWYRQAPGKEREWVAAISRSGGSTYYADSVKGRFTISRDNAKNTVYLQLNSLKPEDTAVYYCAAADRYGSRYYYWGQGTQVTVSS | high polyreactivity
QVQLVESGGGLVQAGGSLRLSCAASGPTLRSYAMGWYRQAPGKERELVAAITRASGARTFYADSVKGRFTISRDSAKNTVYLQMNSLKPEDSAGYYCTAVGRSDLFEYWGQGTQVTVSS | high polyreactivity
QVQLVESGGGLVQAGGSLRLSCAASGSTCVNNDMGLYRQAPGKEGELVAGITTSGGSTYYADSVKGRFTISRDKAKNTVYLQMNSLKPEDTAVYYCAARAFSAWLEMDYWGQCTQVTVSS | low polyreactivity
QVQLVESGGGLVQAGGSLRLSCAASGRTFYHNAMGWYRQAPGKERELVAAITSGARTKYADSVKGRFTISRDNAKNTVYLQMNSLKPEDTAVYYCAAVYYFGKGKTFDYWGQGTQVTVSS | high polyreactivity
QVQLVESGGGLVQAGGSLRLSCAASGRTFYRYAMGWYRQAPGKERELVAAISTSGSTTYADSVKGRFTISRDNAKNTVYLQMISLKPEDTAVYYCNAVYYYRPDWRQSNLSQYGYWGQGTQVTVSS | high polyreactivity
QVQLVESGGGLVQAGGSLRLSCAASGFIFIKYAMRCYRQAPGKERELVAAISFRGGRTNYADSVKGRFTISRDNAKNTVYLQMNSLKPEDTAVYYCAAETRDYSEGYYWGQGTQVTVSS | high polyreactivity
QVQLVESGGGLVQAGGSLRLSCAASGFTFCQYVMGWYRQAPGKERELVAAINWSGGSTYYADSVKGRFTISRDNAKNTVYLQMNSLKPEDTAVYYCNAVKAPYLRYDYWGQGTQVTVSS | high polyreactivity
QVQLVESGGGLVQAGGSRRLSCAASGFTFSSYAMGWYRQAPGKERELVASISWRGGITYYADSVKGRFTISRDNAKNTVYLQMNSLKPEDTAVYYCAAVAFFRPKFYYWGQGTQVTVSS | high polyreactivity
QVQLVESGGGLVQAGGSLRLSCAASGSIFKYNAMGWYRQAPGKERELVAAIRWSGVGTRYADSVKGRFTISRDNAKNTVYLQMNSLKPEDTAVYYCAADVTKYHDGHEYDYWGQGTQVTVSS | low polyreactivity
QVQLVESGGGLVQAGGSLRLSCAASGSIFLGNAMGWYRQAPGKERELVAAITWSGGSTTYADSVKGRFTISRDNAKNTVYLQMNSLKREDTAVYYCNASIYQRYDYWGQGTQVTVSS | low polyreactivity
QVQLVESGGGLVQAGGSLRISCAPSGRIFNINEMGWYRPARGKEREWVARITTGGRTNYADSVKGRFTISRDNAKNTFYLQMNSLKPADTAVYYCAARTYGQLGDYWGQGTQVTVSS | high polyreactivity
QVQLVESGGGLVQAGGSLRLSCAASGSTFGWNAMGWYRQAPGKERELVAAITRGGRTTYADSVKGRFTISRDNAKNTVYLQMNSLKPEDTAVYYCAALHGRYPNRYDYWGQGTQVTVSS | low polyreactivity
QVQLVESGGGLVQAGGSLRLSCAASGRTFNRYAMGWYRQAPGKERELVAVITGSGGAGTYYADSVKGRFTISRDNAKNTVYLQMNSLKPEDTAVYYCNAGGGFYGSTVEHDYWGQGTQVTVSS | low polyreactivity
